Patent publication US20180072816A1 (ADALTA, published 2018)
Changes are numbered by the printed parent chain. Where “and” joins values, the source holds several entries; their conditions need not be identical. Identical values can stand only once.

Assays:
human CXCR4 [1] = target: T1, human CXCR4 (human, UniProt P61073 1-352); assay: SPR (Biacore), biotinylated CXCR4 lipoparticles captured on streptavidin (bt. CXCR4), i-body injected
T1 construct: also called hCXCR4; Fusin

human CXCR4 [2] = target: T1, human CXCR4; assay: SPR (Biacore), immobilised CXCR4 lipoparticles
CCR5 (on lipoparticles) = target: T2, CCR5 (on lipoparticles) (UniProt P51681 1-352, limits assumed); assay: ELISA, single point, periplasmic fraction on CCR5 positive lipoparticles, 450 nm absorbance
T2 construct: whole, on cells; Whole receptor in lipoparticles; also called CCR5 positive lipoparticles; GPCR CCR5

human CXCR4 [3] = target: T1, human CXCR4; assay: SPR (Biacore), biotinylated CXCR4 lipoparticles captured on streptavidin (bt. CXCR4), i-body injected; remark: listed apart in the source
human serum albumin [4] = target: T3, human serum albumin (human, UniProt P02768 25-609); assay: SPR (Biacore), binding to HSA by the SA21 peptide
T3 construct: also called HSA; HAS

human CXCR4 [5] = target: T1, human CXCR4; assay: SPR (Biacore), biotinylated CXCR4 lipoparticles (bt.CXCR4), three successive injections in one cycle
human serum albumin [6] = target: T3, human serum albumin; assay: SPR
human CXCR4 [7] = target: T1, human CXCR4; assay: SPR
human CXCR4 [8] = target: T1, human CXCR4; assay: SPR (Biacore)
human CXCR4 [9] = target: T1, human CXCR4; assay: SPR (Biacore), CXCR4 expressed on lipoparticles
human CXCR4 [10] = target: T1, human CXCR4; assay: SPR (Biacore), immobilised CXCR4 lipoparticles; remark: listed apart in the source
human CXCR4 [11] = target: T1, human CXCR4; assay: not told (affinity for CXCR4); parent i-body before affinity maturation
human CXCR4 [12] = target: T1, human CXCR4; assay: cell-based or functional assay
human CXCR4 [13] = target: T1, human CXCR4; assay: cell-based or functional assay; remark: listed apart in the source
human CXCR4 [14] = target: T1, human CXCR4; assay: off-rate, CXCR4 expressed on lipoparticles
human CXCR4 [15] = target: T1, human CXCR4; assay: phage display selection on hCXCR4 lipoparticles or CXCR4 positive cells
human CXCR4 [16] = target: T1, human CXCR4; assay: flow cytometry on Ramos cells, anti-His-PE; i-body alone or with an excess of SDF-1, MAb 12G5 or AMD3100 [top panel]
human CXCR4 [17] = target: T1, human CXCR4; assay: flow cytometry on Ramos cells, anti-His-PE; i-body alone or with an excess of SDF-1, MAb 12G5 or AMD3100 [middle panel]
human CXCR4 [18] = target: T1, human CXCR4; assay: SPR (Biacore), biotinylated CXCR4 lipoparticles captured on streptavidin (bt. CXCR4), i-body injected; remark: listed apart in the source
human CXCR4 [19] = target: T1, human CXCR4; assay: not told
human CXCR4 [20] = target: T1, human CXCR4; assay: cell-based or functional assay; remark: listed apart in the source

T1 sequence (P61073 whole entry): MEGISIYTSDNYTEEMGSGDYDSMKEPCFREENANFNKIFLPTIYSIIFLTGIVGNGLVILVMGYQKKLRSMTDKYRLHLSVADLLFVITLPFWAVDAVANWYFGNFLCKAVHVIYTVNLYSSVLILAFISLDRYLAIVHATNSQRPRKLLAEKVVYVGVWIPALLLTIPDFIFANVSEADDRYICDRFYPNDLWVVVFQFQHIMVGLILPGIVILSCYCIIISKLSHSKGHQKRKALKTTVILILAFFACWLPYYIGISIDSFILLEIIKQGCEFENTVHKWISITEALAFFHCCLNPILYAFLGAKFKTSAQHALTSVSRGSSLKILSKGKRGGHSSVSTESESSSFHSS
T2 sequence (P51681 whole entry): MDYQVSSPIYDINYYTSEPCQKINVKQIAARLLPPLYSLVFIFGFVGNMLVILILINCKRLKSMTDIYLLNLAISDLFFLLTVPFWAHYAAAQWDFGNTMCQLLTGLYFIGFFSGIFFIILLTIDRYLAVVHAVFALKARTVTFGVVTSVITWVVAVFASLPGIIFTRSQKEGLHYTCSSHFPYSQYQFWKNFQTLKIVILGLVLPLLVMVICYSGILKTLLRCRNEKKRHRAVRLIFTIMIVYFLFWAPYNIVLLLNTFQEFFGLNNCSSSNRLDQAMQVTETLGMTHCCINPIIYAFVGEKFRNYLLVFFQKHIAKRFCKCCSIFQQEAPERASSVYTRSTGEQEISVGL

B1: ADCX-668 (designed binder)
chain: LQVDIVPSQGEISVGESKFFLCQVAGTIWYEQISWFTPNGEKLTPNQQRISVVWNDDSSSTLTIYNANIDDAGIYKCVVWTRPVTSSMHEATVNVKIFQ
notes: i-body (human NCAM1 domain 1 scaffold)
Kd (human CXCR4 [1]): 42300 nM
Kd (human CXCR4 [2]): 42000 nM

B2: ADCX-272 (designed binder)
chain: LQVDIVPSQGEISVGESKFFLCQVAGHLEVRSISWFSPNGEKLTPNQQRISVVWNDDSSSTLTIYNANIDDAGIYKCVVEQRGRSQSYFSEATVNVKIFQ
notes: as for B1
Kd (human CXCR4 [2]): 1600 nM
binding result (CCR5 (on lipoparticles)): no binding
Kd (human CXCR4 [3]): 1620 nM

B3: AM3-114-Im7-FH-SA21 dual specificity i-body (designed binder)
chain: MALQVDIVPSQGEISVGESKFFLCQVAGSLSGIRISWFSPNGEKLTPNQQRISVVWNDDSSSTLTIYNANIDDAGIYKCVVWRTGGYRHRYLVLGEATVNVKIFQGGGGSELKNSISDYTEAEFVQLLKEIEKENVAATDDVLDVLLEHFVKITEHPDGTDLIYYPSDNRDDSPEGIVKEIKEWRAANGKPGFKQGGGGGSDYKDDDDKGSGHHHHHHHHGGGGSRLIEDICLPRWGCLWEDD
Kd (human serum albumin [4]): 518 nM
Kd (human CXCR4 [5]): 9.2 nM
koff (human CXCR4 [5]): 0.002 s⁻¹
kon (human CXCR4 [5]): 210000 M⁻¹ s⁻¹
Kd (human serum albumin [6]): ~500 nM
Kd (human CXCR4 [7]): 5 to 10 nM
Kd (human CXCR4 [8]): 9 nM

B4: AM3-920 (designed binder)
chain: LQVDIVPSQGEISVGESKFFLCQVAGSGSGIRISWFSPNGEKLTPNQQRISVVWNDDSSSTLTIYNANIDDAGIYKCVVWRTGGYRHRYLVLGEATVNVKIFQ
Kd (human CXCR4 [9]): 7.18 nM and 5.87 nM
kon (human CXCR4 [9]): 1.12e+06 M⁻¹ s⁻¹ and 1.26e+06 M⁻¹ s⁻¹

B5: ADCX-99 (designed binder)
chain: B4 chain with G30D, W80Y, Y89A
notes: i-body (human NCAM1 domain 1 scaffold); also called wild-type i-body ADCX-99
Kd (human CXCR4 [10]): ~600 nM and 623 nM
Kd (human CXCR4 [11]): > 700 nM
Kd (human CXCR4 [7]): 643 nM
Kd (human CXCR4 [2]): 700 nM
binding result (CCR5 (on lipoparticles)): no binding

B6: AM3-523 (designed binder)
chain: B4 chain with G30H, I31M, T82V, Y89A
cAMP inhibition IC50 (human CXCR4 [12]): 225 nM
Kd (human CXCR4 [9]): 8.53 nM and 9.47 nM
kon (human CXCR4 [9]): 1e+06 M⁻¹ s⁻¹ and 965000 M⁻¹ s⁻¹
IC50 (nM) in β-Arrestin BRET assay (Antagonist mode in the presence of 100 nM SDF-1) (human CXCR4 [13]): 12700 nM

B7: AM3-466 (designed binder)
chain: B4 chain with G30H, I31Q, G84A, Y89A
Kd (human CXCR4 [9]): 13.8 nM and 15.7 nM
kon (human CXCR4 [9]): 465000 M⁻¹ s⁻¹ and 426000 M⁻¹ s⁻¹
IC50 (nM) in β-Arrestin BRET assay (Antagonist mode in the presence of 100 nM SDF-1) (human CXCR4 [13]): 6320 nM

B8: AM4-746 (designed binder)
chain: B4 chain with G28K, G30N, W80Y, V91K
cAMP inhibition IC50 (human CXCR4 [12]): 115 nM
Kd (human CXCR4 [9]): 5.36 nM
kon (human CXCR4 [9]): 2.5e+06 M⁻¹ s⁻¹
IC50 (nM) in β-Arrestin BRET assay (Antagonist mode in the presence of 100 nM SDF-1) (human CXCR4 [13]): 741 nM

B9: AM5-245 (designed binder)
chain: B4 chain with V24A, G30H, Y89A
Kd (human CXCR4 [9]): 14.9 nM and 15.9 nM
kon (human CXCR4 [9]): 813000 M⁻¹ s⁻¹ and 771000 M⁻¹ s⁻¹

B10: AM4-613 (designed binder)
chain: B4 chain with G28K, G30D, I31V
Kd (human CXCR4 [9]): 7.83 nM
kon (human CXCR4 [9]): 1.33e+06 M⁻¹ s⁻¹
IC50 (nM) in β-Arrestin BRET assay (Antagonist mode in the presence of 100 nM SDF-1) (human CXCR4 [13]): 1830 nM

B11: AM4-1121 (designed binder)
chain: B4 chain with G28K, W80Y, V91R
cAMP inhibition IC50 (human CXCR4 [12]): 125 nM
Kd (human CXCR4 [9]): 7.21 nM and 6.7 nM
kon (human CXCR4 [9]): 1.29e+06 M⁻¹ s⁻¹ and 1.42e+06 M⁻¹ s⁻¹
IC50 (nM) in β-Arrestin BRET assay (Antagonist mode in the presence of 100 nM SDF-1) (human CXCR4 [13]): 796 nM
koff (human CXCR4 [14]): 0.0115 s⁻¹

B12: AM4-661 (designed binder)
chain: B4 chain with G28K, G30D, I31F, W80Y
Kd (human CXCR4 [9]): 9.53 nM and 9.66 nM
kon (human CXCR4 [9]): 966000 M⁻¹ s⁻¹ and 983000 M⁻¹ s⁻¹
IC50 (nM) in β-Arrestin BRET assay (Antagonist mode in the presence of 100 nM SDF-1) (human CXCR4 [13]): 1540 nM

B13: ADCX-6 (designed binder)
chain: LQVDIVPSQGEISVGESKFFLCQVAGLTSLEGISWFSPNGEKLTPNQQRISVVWNDDSSSTLTIYNANIDDAGIYKCVVEDHPQYSKMEEATVNVKIFQ
notes: i-body (human NCAM1 domain 1 scaffold); also called ACDX-6
binding result (human CXCR4 [15]): binds

B14: ADCX-54 (designed binder)
chain: LQVDIVPSQGEISVGESKFFLCQVAGRTIIVEISWFSPNGEKLTPNQQRISVVWNDDSSSTLTIYNANIDDAGIYKCVVVLSIRGKWELEATVNVKIFQ
notes: as for B1
binding result (human CXCR4 [15]): binds

B15: AM3-114-6H (designed binder)
chain: EAEALQVDIVPYQGEISVGESKFFLCQVAGSLSGIRISWFSPNGEKLTPNQQRISVVWNDDSSSTLTIYNANIDDAGIYKCVVWRTGGYRHRYLVLGEATVNVKIFQ
notes: Construct with N-terminal EAEA and 6H tag, detected with anti-His-PE; not shown: 6H tag (six histidines by the label)
binding result (human CXCR4 [16]): binds

B16: AM4-272-6H (designed binder)
chain: B15 chain with Y12S, L32Y, G34D, I35Y, W84Y, T86I
notes: as for B15
binding result (human CXCR4 [17]): binds

B17: ADCX-306 (designed binder)
chain: LQVDIVPSQGEISVGESKFFLCQVAGFQEWVNWFSPNGEKLTPNQQRISVVWNDDSSSTLTIYNANIDDAGIYKCVVTMPHTLNNLDVRTEATVNVKIFQ
notes: as for B1
Kd (human CXCR4 [10]): 22500 nM
Kd (human CXCR4 [18]): 22500 nM
Kd (human CXCR4 [2]): 22000 nM

B18: 21H5 control i-body (designed binder)
chain: LQVDIVPSQGEISVGESKFFLCQVAGDAKDKDISWFSPNGEKLTPNQQRISVVWNDDSSSTLTIYNANIDDAGIYKCVVTGSDAMSNYSYPISESEATVNVKIFQ
notes: Control i-body used as isotype control; also called negative control i-body; isotype control i-body
cAMP inhibition IC50 (human CXCR4 [12]): > 10000 nM
binding result (human CXCR4 [19]): no binding
Calcium Inhibition EC50 (human CXCR4 [20]): > 10000 nM
